Peptide text beside a SMILES is read from it. * marks the point of attachment. DOTA = O=C(O)CN1CCN(CC(=O)O)CCN(CC(=O)*)CCN(CC(=O)O)CC1; PEG3 = NCCOCCOCCOCCC(=O)O
Key:
in vivo [1] = conditions: nude, mouse, iv, 1 mg/kg, total radioactivity
Experimental: Peptide conjugate P144-DOTA and the radiolabeled tracer [^68Ga]Ga-P144 were both administrated through tail vein injection. The chemical dose of [^68Ga]Ga-P144 was 1 mg/kg, and the radioactive dose was approximately 3.7 MBq in 200 μL per mouse. As a competitive blocker with the same target TGFβ, the dose of DOTA-P144 was 100 mg/kg (47.3 μmol/kg, 100 times the mass dose of the radiolabeled peptide conjugate), and the administration of this unlabeled peptide conjugate was followed after 10 min by 1 mg/kg of the radiolabeled tracer [^68Ga]Ga-P144. All the mice were deprived of food and water for 1 h before drug administration. Then, the mice were anesthetized with pentobarbital sodium (45 mg/kg) and scanned with microPET. […]
The tumor-bearing mice were anesthetized with pentobarbital sodium before microPET scanning. […] The body temperature of the mice was monitored by a rectal probe and kept at 37°C by a heated air stream. […] Images were processed and analyzed using PMOD4.2 software (PMOD Technologies Ltd., Zurich, Switzerland). […] Radioactivity values of the ROIs per unit volume were obtained, and the percentage of injected dose per tissue weight in gram (%ID/g) values of the different organs and tissues were calculated as follows: […]

PANC-1 cells = assay: Cell uptake (internalization) assay in PANC-1 cells; type: cell-based, human; conditions: 200 MBq/L, 0.5-5 h incubation, FCS-free medium, γ-counter, %AD per 1 × 10^6 cells, three series
Experimental: (§1) The method process for cell uptake assay of radiolabeled drug was as follows. First, the selected cell lines were inoculated into a 6-well plate, incubated for 48 h to achieve a cell coverage rate of approximately 80%–90% (1.2–2 × 10^6 cells/well), and replaced with 1 mL of fresh culture medium without fetal calf serum (FCS). Then, a certain amount of radionuclide-labeled drug (200 MBq/L) was added to the culture well and incubated for different times (0.5–5 h). The culture medium containing the drug was removed, and the cells were washed twice with 1 mL of phosphate-buffered saline (PBS) (pH 7.4). Cells were incubated with 1 mL of glycine HCl solution (1 M, pH 2.2) at room temperature for 10 min to remove surface binding, and the cells were washed with 2 mL of ice-cold PBS (collect washing solution for detection of binding amount). After that, 1.4 mL of lysis buffer (0.3 M of NaOH, 0.2% sodium dodecyl sulfate (SDS)) was used to lyse the cells and collect this lysate. With a γ-counter, the radioactive activity in the collected lysate was measured, and the %AD value was calculated. One mio (1 × 10^6) of cells was adopted for normalization, with the result representing the internalization uptake level of the tested radiopharmaceutical by this cell line. Each experiment was repeated three times independently, with three multiple wells set at each processing time point.

[2] = Radio-HPLC radiochemical purity after standing at room temperature (stability); type: physicochemical; conditions: C18, room temperature, 4 h after synthesis
Experimental: Radio-HPLC and radio-iTLC assays were conducted for the quality control of product [^68Ga]Ga-DOTA-P144 and free [^68Ga] ions. American alltech1500 high-performance liquid chromatography and online radioactive detector were used. Chromatographic column: YMC-Pack Pro C18 RS (5 μm, 250 mm × 4.6 mm). Mobile phase: A) water + 0.1% formic acid; B) acetonitrile. Method: 0 min, 95% A and 5% B; 1 min, 95% A and 5% B; 10 min, 70% A and 30% B; 18 min, 70% A and 30% B; 25 min, 95% A and 5% B; flow speed, 1 mL/min. The quality control standard was that the chemical and radiochemical purities of the products were greater than 95%. Radio-iTLC analytical quantification methods/conditions were as follows. The stationary phase was iTLC glass fiber (1 cm × 8 cm instant silica gel strip), and the developing solvent was 2 mM of sodium citrate/citric acid buffer solution (pH 6.5). performed according to General Rule 1401 in Chinese Pharmacopoeia (2020 Edition), the method for the determination of radioactive drugs, the Rf value of the radioactive peak of the product to be tested was approximately 0.1–0.4, and there was a single main peak under normal conditions. If there were impurities, especially free [^68Ga] ions, the corresponding peaks should appear at the Rf value of approximately 0.6–0.8. […]

[3] = tested on: PANC-1 tumor-bearing mice; assay: in vivo; conditions: mouse
Experimental: (§2) Pancreatic cancer cell line PANC-1 was obtained from the ATCC, and cells were cultured in complete RPMI1640 medium supplemented with 10% fetal calf serum (Life Technologies, Carlsbad, CA, USA). One portion of the PANC-1 cells (~1 × 10^6) was injected subcutaneously below the anterior axillary of the nude mice to induce the mouse heterotopic tumor model. The tumor cells were suspended in a mixture (v/v, 1:1) of medium and Matrigel (Corning Life Sciences, Corning, NY, USA). The tumor xenografts were generally palpable within 10 days after injection. Xenograft tumor sizes of the model mice were measured every 3 days. Short and long tumor diameters, tumor volume, and body weight were measured. When the xenograft tumor grew to a volume of 150–200 mm^3, the mice were used for PET imaging study. A diagnostic tracer and drug were injected approximately 2 weeks after the establishment of the tumor model.
(§3) Peptide conjugate P144-DOTA and the radiolabeled tracer [^68Ga]Ga-P144 were both administrated through tail vein injection. The chemical dose of [^68Ga]Ga-P144 was 1 mg/kg, and the radioactive dose was approximately 3.7 MBq in 200 μL per mouse. As a competitive blocker with the same target TGFβ, the dose of DOTA-P144 was 100 mg/kg (47.3 μmol/kg, 100 times the mass dose of the radiolabeled peptide conjugate), and the administration of this unlabeled peptide conjugate was followed after 10 min by 1 mg/kg of the radiolabeled tracer [^68Ga]Ga-P144. All the mice were deprived of food and water for 1 h before drug administration. Then, the mice were anesthetized with pentobarbital sodium (45 mg/kg) and scanned with microPET. After the last scanning, the mice were anesthetized with 2% pentobarbital sodium at 65 mg/kg intraperitoneally and then executed by dislocation of their cervical vertebra, and the tissues were harvested for analysis.
(§4) The tumor-bearing mice were anesthetized with pentobarbital sodium before microPET scanning. Each mouse was intravenously injected with approximately 3.7 MBq (90–120 μCi) of [^68Ga]Ga-P144. After administration, the mice were scanned by a small animal PET system (Inveon, Siemens, Munich, Germany). The body temperature of the mice was monitored by a rectal probe and kept at 37°C by a heated air stream. The scanning time was set as follows: static PET scanning for 10 min and scanning energy window 350–650 keV at four time points (1 h, 2 h, 3 h, and 4 h) after the injection. MicroPET image reconstruction was performed using a 3D OSEM PSF algorithm with five iterations. Images were processed and analyzed using PMOD4.2 software (PMOD Technologies Ltd., Zurich, Switzerland). Regions of interest (ROIs) of the brain, heart, liver, lungs, kidney, muscle, and tumor were delineated. Radioactivity values of the ROIs per unit volume were obtained, and the percentage of injected dose per tissue weight in gram (%ID/g) values of the different organs and tissues were calculated as follows:
(§5) %ID/g=radiouptake in ROI(kBq/g)/injection dose(kBq)×100.

in vivo [4] = conditions: nude, mouse, iv, 1 mg/kg, total radioactivity; remark: listed apart in the source
Experimental: as §2, §3, §4, §5

PC3 cells = assay: Cell uptake (internalization) assay in PC3 cells; type: cell-based; conditions: 200 MBq/L, 0.5-5 h incubation, FCS-free medium, γ-counter, three series
Experimental: as §1

in vivo [5] = conditions: nude, mouse, iv, 1 mg/kg, total radioactivity; remark: listed apart in the source
Experimental: For biodistribution assay ex vivo, the PANC-1 tumor model mice were euthanized by pentobarbital sodium at 1 h after tracer administration. The blood was harvested via cardiac puncture, and the different organs/tissues were isolated, weighed, and counted on a γ-counter for radioactivity. The amount of the injected radiotracer was measured and used to determine the total number of counts of nuclei decay per minute (CPM) by comparison with a standard of known activity. The data were background- and decay-corrected and expressed as percentages of the injection dose per tissue weight in grams (%ID/g).

human glioblastoma cells = conditions: ref [28]; cited from earlier work
Text: TGFβ-specific blocking peptide P144 selected in this study was an analog of the essential structure for ligand recognition and binding in the extracellular domain of TGFβR3, which has high specificity and affinity to TGFβ ([36]). […] The doses of th ...

## CC[C@H](C)[C@H](NC(=O)[C@H](CO)NC(=O)[C@H](C)NC(=O)[C@H](CC(=O)O)NC(=O)[C@H](CC(C)C)NC(=O)[C@H](CO)NC(=O)[C@@H](NC(=O)CCOCCOCCOCCNC(=O)CN1CCN(CC(=O)O)CCN(CC(=O)O)CCN(CC(=O)O)CC1)[C@@H](C)O)C(=O)N[C@@H](Cc1c[nH]c2ccccc12)C(=O)N[C@@H](C)C(=O)N[C@@H](CCSC)C(=O)N[C@@H](CCSC)C(=O)N[C@@H](CCC(N)=O)C(=O)N[C@@H](CC(N)=O)C(=O)N[C@@H](C)C(N)=O [[^68Ga]Ga-P144, metal not drawn] ({DOTA-PEG3}-TSLDASIWAMMQNA-NH2; N-terminus and C-terminus assumed)
In vivo [1]
  tissue uptake at 1 h: 5.36 ± 0.937 %ID/g
PANC-1 cells
  cell uptake ratio (internalization): high and persistent
[2]
  radiochemical purity after purification and placement at room temperature for 4 h: 98.87%
[3]
  tumor retention time: > 4 h
In vivo [4]
  tissue to tissue ratio at 1 h: 3.44 ± 1.53
  tissue to tissue ratio at 4 h: 3.77 ± 1.18
In vivo [4]; uptake in heart
  tissue uptake at 1 h: 5.74 ± 1.68 %ID/g
  tissue uptake at 4 h: 3.92 ± 0.891 %ID/g
In vivo [4]; uptake in kidneys
  tissue uptake at 1 h: 3.32 ± 0.636 %ID/g
  tissue uptake at 4 h: 2.8 ± 0.281 %ID/g
In vivo [4]; uptake in liver
  tissue uptake at 1 h: 4.01 ± 0.975 %ID/g
  tissue uptake at 4 h: 2.91 ± 0.431 %ID/g
In vivo [4]; uptake in lung
  tissue uptake at 1 h: 3.56 ± 0.739 %ID/g
  tissue uptake at 4 h: 2.19 ± 0.206 %ID/g
In vivo [4]; uptake in tumors
  tissue uptake at 1 h: 5.76 ± 1.21 %ID/g
  tissue uptake at 4 h: 6.02 ± 1.37 %ID/g
PC3 cells
  cell uptake ratio (non-specific cellular uptake): very low level
In vivo [5]; ex vivo radioactive biodistribution in heart
  tissue uptake at 1 h: 4.89 ± 0.899 %ID/g
In vivo [5]; ex vivo radioactive biodistribution in kidney
  tissue uptake at 1 h: 2.98 ± 0.854 %ID/g
In vivo [5]; ex vivo radioactive biodistribution in liver
  tissue uptake at 1 h: 1.95 ± 0.717 %ID/g
In vivo [5]; ex vivo radioactive biodistribution in lung
  tissue uptake at 1 h: 3.16 ± 0.429 %ID/g
In vivo [5]; ex vivo radioactive biodistribution in tumors
  tissue uptake at 1 h: 4.63 ± 1.22 %ID/g

## TSLDASIWAMMQNA [P144]
Human glioblastoma cells
  growth and proliferation of human glioblastoma cells: significantly inhibit

From paper PMC10540840, “PET imaging with [^68Ga]-labeled TGFβ-targeting peptide in a mouse PANC-1 tumor model” (Frontiers in Oncology, 2023)
